Source: paper PMC4490337, “Revisiting the intraperoxisomal pathway of mammalian PEX7” (Scientific Reports, 2015)

T1: PEX7 (in vitro synthesized) (human, UniProt O00628 1-323, unlabeled in the native-PAGE analyses; [35S]methionine label in the import/export assays)
T1 sequence (looked up): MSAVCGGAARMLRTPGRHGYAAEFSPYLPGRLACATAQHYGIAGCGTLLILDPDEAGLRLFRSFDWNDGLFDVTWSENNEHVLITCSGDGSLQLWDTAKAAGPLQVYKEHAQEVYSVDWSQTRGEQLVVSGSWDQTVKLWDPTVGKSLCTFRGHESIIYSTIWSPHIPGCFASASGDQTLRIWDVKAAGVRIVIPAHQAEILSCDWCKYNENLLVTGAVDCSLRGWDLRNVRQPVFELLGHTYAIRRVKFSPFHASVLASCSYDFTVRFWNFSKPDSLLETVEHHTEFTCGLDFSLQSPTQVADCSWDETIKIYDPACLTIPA


Experiments:
[1] = target: T1, PEX7 (in vitro synthesized); assay: cell-based or functional assay
[2] = target: T1, PEX7 (in vitro synthesized); assay: native gel or EMSA; chase of the pre-assembled trimeric ΔC1PEX5L-PEX7-35S-prePHYH complex with excess recombinant prePHYH (100 ng) at 23 °C, aliquots over 8 h; band intensity against time; details: partners not purified

Row | amount of 35S-labeled PEX7 exported from peroxisomes in 15 min after pre-incubation with ΔC1PEX5L, against pre-incubation with export-incompetent ΔC1PEX5L(C11A) [1] | half-life of prePHYH in the trimeric complex (with m3) [2] | Binder
1 | ~2 fold |  | ΔC1PEX5L, recombinant protein comprising amino acid residues 1-324 of the large isoform of human PEX5 (domain or fragment) not shown
2 |  | 3.06 h | radiolabeled pre-phytanoyl-CoA hydroxylase (35S-prePHYH) (natural protein, human, UniProt O14832 1-338, looked up, [35S]methionine label, human phytanoyl-CoA hydroxylase, precursor form with the PTS2 (prePHYH); cDNA amplified with primers from the start to the stop codon and cloned into pGEM4 (pGEM4-prePHYH); also called radiolabeled prePHYH; source: in vitro translated (TNT T7 quick coupled kit, rabbit reticulocyte lysate), not purified) MEQLRAAARLQIVLGHLGRPSAGAVVAHPTSGTISSASFHPQQFQYTLDNNVLTLEQRKFYEENGFLVIKNLVPDADIQRFRNEFEKICRKEVKPLGLTVMRDVTISKSEYAPSEKMITKVQDFQEDKELFRYCTLPEILKYVECFTGPNIMAMHTMLINKPPDSGKKTSRHPLHQDLHYFPFRPSDLIVCAWTAMEHISRNNGCLVVLPGTHKGSLKPHDYPKWEGGVNKMFHGIQDYEENKARVHLVMEKGDTVFFHPLLIHGSGQNKTQGFRKAISCHFASADCHYIDVKGTSQENIEKEVVGIAHKFFGAENSVNLKDIWMFRARLVKGERTNL
